Source: publication PMC11182015, “Cytosolic RNA binding of the mitochondrial TCA cycle enzyme malate dehydrogenase”

Target: T1, MDH2 preprotein (malate dehydrogenase 2, mitochondrial), with N-terminal MTS (Homo sapiens, UniProt P40926 1-338)
T1 sequence: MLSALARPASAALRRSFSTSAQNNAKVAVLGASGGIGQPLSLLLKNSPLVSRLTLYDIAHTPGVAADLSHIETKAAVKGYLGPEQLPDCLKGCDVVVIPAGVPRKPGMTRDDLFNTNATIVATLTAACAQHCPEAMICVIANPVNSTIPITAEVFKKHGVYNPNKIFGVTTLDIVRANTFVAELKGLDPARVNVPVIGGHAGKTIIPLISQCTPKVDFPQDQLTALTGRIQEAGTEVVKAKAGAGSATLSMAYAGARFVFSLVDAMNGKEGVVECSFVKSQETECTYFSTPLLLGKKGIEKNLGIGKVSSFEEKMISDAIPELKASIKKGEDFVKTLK
Assay: EMSA; RNA 10 nM; EMSA: 10 mM Tris-HCl pH 7.5, 150 mM NaCl, 20% glycerol, 0.5 mM DTT, 5 mM MgCl2, 0.01 ug/uL BSA, 25 C 20 min; 10 nM Cy5-RNA; native 4-15% Tris-glycine gel
Settings: protein: recombinant; tags: C-terminal Strep-II; label: Cy5

AUAUUUAGCUCAGGCCCGUGGCGCC (ssRNA) [RPS23 5'-UTR control probe]
Kd: 1500 nM
